Data set [1] concerns the target KP32gp37 (Klebsiella phage KP32) (UniProt D1L2X0). In words: SEC-MALS; purified protein in solution, native conditions; SEC coupled to a miniDAWN TREOS MALS detector and Optilab rEX; proteins dialyzed against PBS pH 7.4. On the technique in general: SEC sorts molecules by how far they enter the pores of the column.
Data set [2] concerns the molecule itself. The description is as above.

Experimental findings from article PMC6205948, “Phage-Borne Depolymerases Decrease Klebsiella pneumoniae Resistance to Innate Defense Mechanisms” (Frontiers in Microbiology, 2018) are described below.

As a reminder, the stoichiometry N is a count of units in the complex or per binding partner. As for “KP32gp37 (from UniProt D1L2X0 1-869) (enzyme)”, the stoichiometry N in data set [1] amounted to 3.

B1: KP32gp38 (enzyme, Klebsiella phage KP32, UniProt D1L2X1 1-576, looked up)
chain: MLDNFNQPKGSTIGVLKDGRTIQEAFDSLPRLESFSGSTATDKLRAAITLGVSEVAIGPVEGNGGRPYEFGDVVIPYPLRIVGCGSQGINVTKGTVLKRSAGASFMFHFTGEGQAQRPMGGGLFNINLNGDTATALGDIIKVTQWSYFKANNCAFQNMAGWGIRLKDVMESNISGNLFRRLGGPSGGGILFDDVRSAVTDNVNNLHIEDNTFALMSGPWIGSTANSNPDLIWIVRNKFEFDGTPAAPNTVDSYVLDFQQLSRAFIQDNGFTHFTTERNRYVGVLRVGATAVGTIKFEDNLLFACESAGLIAGGIVVSRGNVNNQGSATTAIKQFTNTSSKLCKLERVINVQSNGNVSVGQQILPDGYINMAELPGNTRLPSEYDADGETTSVLRVPANTQVRQWSVPKMYKDGLTVTKVTVRAKGAAAGAILSLQSGSTVLSTKSIDAGVWKNYVFYVKANQLQETLQLRNTGTADVLADGMVFGKVDYIDWDFAIAPGTLAAGAKYTTPNQSYLDVAGMRVQAVSIPMFDGPTTGLQVWVEATSANGSFVVVMKNDTGSELVTTVTRCRVRAFVS
notes: open reading frame cloned into pEXP5-CT/TOPO; runs at about 62 kDa on SDS-PAGE; The vector pEXP5-CT/TOPO adds a C-terminal His6 tag (surmised from the vector's name); also called hypothetical protein; K21 depolymerase
Consider B1, for which, in data set [2], the “stoichiometry N” value is 3.
